This note sets out measurements from paper PMC3516556.

The target in the assay is FLAG-GluK2 (UniProt P42260). As to the kind of experiment: co-IP; COS-7 cells transfected with combinations of FLAG-GluK2, Neto2 or Neto2Δ7 and GRIP(PDZ4-7)-myc; lysates immunoprecipitated with an anti-GluK2 antibody, western blot. In general terms: Immunoblotting shows a protein as a band on a membrane.
Sequence of UniProt P42260 (P42260 32-908): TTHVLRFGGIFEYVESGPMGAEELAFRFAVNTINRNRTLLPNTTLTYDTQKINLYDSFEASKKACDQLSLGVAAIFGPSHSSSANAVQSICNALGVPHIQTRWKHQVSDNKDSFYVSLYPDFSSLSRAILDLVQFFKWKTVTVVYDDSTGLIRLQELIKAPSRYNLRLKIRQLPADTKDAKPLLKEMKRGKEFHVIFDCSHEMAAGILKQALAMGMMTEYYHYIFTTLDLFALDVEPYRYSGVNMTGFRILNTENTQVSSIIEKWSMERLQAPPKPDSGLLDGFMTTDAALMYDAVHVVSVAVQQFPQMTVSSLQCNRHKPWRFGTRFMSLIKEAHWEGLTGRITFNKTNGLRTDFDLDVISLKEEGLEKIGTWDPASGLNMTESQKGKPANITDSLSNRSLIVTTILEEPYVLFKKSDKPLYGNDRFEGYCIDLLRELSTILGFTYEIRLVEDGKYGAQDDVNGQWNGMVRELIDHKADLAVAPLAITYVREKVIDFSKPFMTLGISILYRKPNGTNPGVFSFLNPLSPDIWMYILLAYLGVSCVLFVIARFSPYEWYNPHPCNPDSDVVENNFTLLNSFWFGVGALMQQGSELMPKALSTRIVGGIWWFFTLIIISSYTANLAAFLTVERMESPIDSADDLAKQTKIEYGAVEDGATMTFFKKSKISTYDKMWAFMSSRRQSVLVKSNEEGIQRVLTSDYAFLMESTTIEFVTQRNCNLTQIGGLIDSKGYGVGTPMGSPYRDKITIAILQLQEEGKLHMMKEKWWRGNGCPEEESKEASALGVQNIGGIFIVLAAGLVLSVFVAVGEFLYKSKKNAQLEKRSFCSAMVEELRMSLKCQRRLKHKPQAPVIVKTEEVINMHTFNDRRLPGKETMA

“C-terminal myc-tagged GRIP(PDZ4-7) (domain or fragment)”: the amount coimmunoprecipitated with GluK2 when Neto2 is coexpressed, percent of signal in the absence of Neto2 (% of signal in the absence of Neto2) was found to be 250 and the amount coimmunoprecipitated with GluK2 when Neto2Δ7 is coexpressed, percent of signal in the absence of Neto2 (% of signal in the absence of Neto2) worked out at 103.
